Experimental data as given in article PMC12207370, “Macrocyclic Peptide Probes for Immunomodulatory Protein CD59: Potent Modulators of Bacterial Toxin Activity and Antibody‐Dependent Cytotoxicity” (Angewandte Chemie (International Ed. in English), 2025).

Molecular target: T1, biotinylated CD59 (Homo sapiens, UniProt P13987)
T1 construct: Recombinant soluble human CD59 with an additional C-terminal cysteine residue
T1 sequence (P13987 26-102 limits assumed): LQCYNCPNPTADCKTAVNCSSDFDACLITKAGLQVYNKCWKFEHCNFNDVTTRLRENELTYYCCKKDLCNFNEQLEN
Experiment: mRNA-display cyclic peptide screen against CD59-biotin, NGS abundance after 6th selection round
Conditions: for Percentage Seq I: counts normalised by total counts of sample Seq I; for Percentage Seq I / Percentage Seq II: percentage of the pool; for Percentage Seq I / Percentage Seq II / Percentage Average / Percentage of the pool, averaged across the two sequencing samples / Percentage of the pool, Seq I / Percentage of the pool, Seq II: sheet R6; for Percentage Seq II: counts normalised by total counts of sample Seq II; for Percentage Average: percentage of the pool averaged across the two sequencing samples; for Counts Seq I / Counts Seq II: raw NGS counts of peptide sequence; for Counts Seq I: sequencing sample Seq I; for Counts Seq I / Counts Seq II / Counts (raw counts for peptide sequence), Seq I / Counts (raw counts for peptide sequence), Seq II: sheet R6 (6th selection round); for Counts Seq II: sequencing sample Seq II; for Counts (raw counts for peptide sequence), Seq I: NGS sample Seq I; for Counts (raw counts for peptide sequence), Seq II: NGS sample Seq II; for Percentage of the pool, averaged across the two sequencing samples: average of Seq I and Seq II; for Percentage of the pool, Seq I: counts normalised by total counts of NGS sample Seq I; for Percentage of the pool, Seq II: counts normalised by total counts of NGS sample Seq II
Outline: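 Peptide–mRNA fusions were made by in vitro translation with a customised PURE express kit. The kit lacked release factor 1 and methionine and was supplemented with […] initiator tRNA carrying N-chloroacetyl-d-tyrosine. Thioether macrocycles were formed, then enriched and amplified over iterative rounds on CD59-biotin immobilised on streptavidin beads. NGS read counts per sequence were recorded after the 6th selection round.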

| Substance | Percentage Seq I [%] | Percentage Seq II [%] | Percentage Average [%] | Counts Seq I | Counts Seq II | Counts (raw counts for peptide sequence), Seq I | Counts (raw counts for peptide sequence), Seq II | Percentage of the pool, averaged across the two sequencing samples [%] | Percentage of the pool, Seq I [%] | Percentage of the pool, Seq II [%] |
| --- | --- | --- | --- | --- | --- | --- | --- | --- | --- | --- |
| QWNRWYGMDER | 0.084 | 0.097 | 0.091 | 369 | 42 | – | – | – | – | – |
| RAWGNRYIAYY | 0.027 | 0.030 | 0.029 | 119 | 13 | – | – | – | – | – |
| RCWASGSRDWR | – | – | – | – | – | 95 | 6 | 0.018 | 0.022 | 0.014 |
| RCWVRGSRNYT | – | – | – | – | – | 45 | 4 | 0.010 | 0.010 | 0.009 |
| RGGTRDTIWG | 0.078 | 0.063 | 0.070 | 340 | 27 | – | – | – | – | – |
| RIGTSTCPFKFS | 0.024 | 0.023 | 0.024 | 106 | 10 | – | – | – | – | – |
| RRDRFDQCVL | – | – | – | – | – | 33 | 5 | 0.010 | 0.00754 | 0.012 |
| RTCHLRHDGPHA | – | – | – | – | – | 59 | 6 | 0.014 | 0.013 | 0.014 |
| RVGSQFCAQL | – | – | – | – | – | 33 | 9 | 0.014 | 0.00754 | 0.021 |
| RYGGRTFIYAWS | 0.025 | 0.026 | 0.025 | 111 | 11 | – | – | – | – | – |
| SACGNRQIQYY | – | – | – | – | – | 51 | 6 | 0.013 | 0.012 | 0.014 |
| SARGNRQIQYY | 0.026 | 0.028 | 0.027 | 114 | 12 | – | – | – | – | – |
| SAWGDRQIQYY | – | – | – | – | – | 64 | 6 | 0.014 | 0.015 | 0.014 |
| SAWGNQQIQYY | 0.028 | 0.026 | 0.027 | 124 | 11 | – | – | – | – | – |
| SAWGNRKIQYY | – | – | – | – | – | 55 | 5 | 0.012 | 0.013 | 0.012 |
| SAWGNRLIQYY | – | – | – | – | – | 80 | 5 | 0.015 | 0.018 | 0.012 |
| SAWGNRQIKYY | – | – | – | – | – | 65 | 6 | 0.014 | 0.015 | 0.014 |
| SAWGNRQIQCY | – | – | – | – | – | 55 | 5 | 0.012 | 0.013 | 0.012 |
| SAWGNRQIQHY | – | – | – | – | – | 74 | 3 | 0.012 | 0.017 | 0.007 |
| SAWGNRQIQY+ | 0.026 | 0.016 | 0.021 | 114 | 7 | – | – | – | – | – |
| SAWGNRQIQYC | 0.039 | 0.028 | 0.033 | 170 | 12 | – | – | – | – | – |
| SAWGNRQIQYF | 0.023 | 0.030 | 0.027 | 102 | 13 | – | – | – | – | – |
